Data from PMC3168509, “Insights into the Role of Yeast eIF2A in IRES-Mediated Translation” (PLoS ONE, 2011).

Target: T1, GST-eEF1A (full-length eEF1A/Tef1p fused to GST) (S. cerevisiae, UniProt P02994 1-458)
T1 construct: yeast eEF1A, TEF1 amplified by PCR from genomic DNA; also called GST-TEF1; full-length eEF1A fusion protein; not shown: GST, N-terminal, kept
T1 sequence (looked up): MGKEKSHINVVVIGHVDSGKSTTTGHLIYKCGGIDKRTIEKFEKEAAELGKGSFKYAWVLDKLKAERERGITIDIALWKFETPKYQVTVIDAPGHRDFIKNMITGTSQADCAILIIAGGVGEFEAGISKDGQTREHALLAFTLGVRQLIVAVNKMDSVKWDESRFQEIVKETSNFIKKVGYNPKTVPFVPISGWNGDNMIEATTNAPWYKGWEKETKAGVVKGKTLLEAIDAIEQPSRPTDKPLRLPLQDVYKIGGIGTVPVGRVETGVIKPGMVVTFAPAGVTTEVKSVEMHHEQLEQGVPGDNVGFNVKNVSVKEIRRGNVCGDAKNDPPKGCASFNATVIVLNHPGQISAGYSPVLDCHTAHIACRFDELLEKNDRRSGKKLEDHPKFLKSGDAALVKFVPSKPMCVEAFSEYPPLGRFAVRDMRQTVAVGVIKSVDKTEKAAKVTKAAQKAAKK
Assay: pull-down; full-length GST-eEF1A on glutathione-Sepharose with lysates of ΔeIF2A yeast carrying YCplac111-YP, grown 1 h without or with 6% ethanol; Western blot for HA, bands quantified with Image J against 8% input
Details: one partner purified

B1: HA-eIF2A (N-terminally HA-tagged eukaryotic initiation factor 2A expressed from YCplac111-YP) (natural protein, S. cerevisiae, UniProt P53235 1-642, looked up)
chain: MSSQFFLKTSQDIELFQSYPTFEQSNTNSKDFPVISSVLSPCGRFLALSTKENVKVFTGPCLDNVLLTMKLSDVYDLHFSPAGNYLSTWERASIQDPNHKNVKVWYLNKPFKKDCVSEDIVPAYEYQAKSQSGWFLQFSKLDNYGLRLFKHDLKIVKLSSANADNFDFQSPFAVLSDDETSQHFTTYLISPAEHPTICTFTPEKGGKPAQLIIWALSEGKITKKIASKTFFKADSCQLKWNPLGNAILCLAITDFDSSNKSYYGENTLYLLSFQGVNGTLGGNSVRVSLTTGPVHDFTWSPTSRQFGVIAGYMPATISFFDLRGNVVHSLPQQAKNTMLFSPSGHYILIAGFGNLQGSVEILDRLDKFKCVSKFDATNTSVCKWSPGGEFIMTATTSPRLRVDNGVKIWHVSGSLVFVKEFKELLKVDWRSPCNYKTLENKDEAFFENHIINNWEPLPDSTTSSLDPKISNKSELQIHSSVQEYISQHPSREASSNGNGSKAKAGGAYKPPHARRTGGGRIVPGVPPGAAKKTIPGLVPGMSANKDANTKNRRRRANKKSSETSPDSTPAPSAPASTNAPTNNKETSPEEKKIRSLLKKLRAIETLKERQAVGDKLEDTQVLKIQTEEKVLKDLEKLGWKDE
notes: yeast eukaryotic initiation factor 2A, encoded by YGR054w; the HA-tagged eIF2A coding region behind its natural promoter; the kind of modification is not known; also called HA-tagged eIF2A; YGR054w; source: BY4684 ΔeIF2A yeast transformed with YCplac111-YP (native promoter), in lysate; not shown: HA, N-terminal, kept
fold increase in interaction (6% ethanol against untreated cells): 2 fold
